T1: soluble FGFR2 IIIc-Fc fusion protein (human)
T1 construct: Extracellular domain of human FGFR2 beta (IIIc), aa 1-262, Arg-Ser linker, human IgG1 Fc; signal peptide 1-21 left out; also called FGFR2 beta-ECD; FGFR2c beta-EDC
T1 chain: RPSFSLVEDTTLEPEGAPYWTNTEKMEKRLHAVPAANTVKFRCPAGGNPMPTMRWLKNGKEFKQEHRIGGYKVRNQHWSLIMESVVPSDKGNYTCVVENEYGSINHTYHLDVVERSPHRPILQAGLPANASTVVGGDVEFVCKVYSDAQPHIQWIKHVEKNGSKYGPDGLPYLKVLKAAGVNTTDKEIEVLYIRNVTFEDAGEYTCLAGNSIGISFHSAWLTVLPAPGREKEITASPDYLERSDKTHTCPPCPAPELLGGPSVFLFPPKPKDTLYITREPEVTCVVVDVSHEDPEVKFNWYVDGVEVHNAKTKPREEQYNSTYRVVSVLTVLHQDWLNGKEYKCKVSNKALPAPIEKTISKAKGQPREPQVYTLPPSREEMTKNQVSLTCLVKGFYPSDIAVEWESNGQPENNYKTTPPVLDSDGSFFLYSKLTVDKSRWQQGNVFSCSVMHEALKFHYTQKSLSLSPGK

T2: FGFR2 IIIb-Fc (human)
T2 construct: also called FGFR2IIIb beta-ECD; FGFR2IIIb-hFc
T2 chain: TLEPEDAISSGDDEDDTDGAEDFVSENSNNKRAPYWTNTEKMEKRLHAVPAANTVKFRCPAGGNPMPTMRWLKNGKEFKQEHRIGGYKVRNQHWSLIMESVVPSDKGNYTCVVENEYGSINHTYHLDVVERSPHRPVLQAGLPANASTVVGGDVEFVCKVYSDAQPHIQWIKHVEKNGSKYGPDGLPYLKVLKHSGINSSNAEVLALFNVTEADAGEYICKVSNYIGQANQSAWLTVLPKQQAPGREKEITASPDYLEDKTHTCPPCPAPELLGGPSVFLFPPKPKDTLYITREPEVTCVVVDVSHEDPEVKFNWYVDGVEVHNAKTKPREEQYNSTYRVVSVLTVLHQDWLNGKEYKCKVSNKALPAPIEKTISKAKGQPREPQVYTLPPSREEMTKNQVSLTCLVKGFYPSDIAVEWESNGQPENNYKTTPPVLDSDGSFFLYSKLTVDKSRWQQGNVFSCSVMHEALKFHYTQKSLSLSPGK

T3: 128AA-mFc (128-amino acid loop-3 fragment of FGFR2IIIc fused to mouse Fc) (human)
T3 chain: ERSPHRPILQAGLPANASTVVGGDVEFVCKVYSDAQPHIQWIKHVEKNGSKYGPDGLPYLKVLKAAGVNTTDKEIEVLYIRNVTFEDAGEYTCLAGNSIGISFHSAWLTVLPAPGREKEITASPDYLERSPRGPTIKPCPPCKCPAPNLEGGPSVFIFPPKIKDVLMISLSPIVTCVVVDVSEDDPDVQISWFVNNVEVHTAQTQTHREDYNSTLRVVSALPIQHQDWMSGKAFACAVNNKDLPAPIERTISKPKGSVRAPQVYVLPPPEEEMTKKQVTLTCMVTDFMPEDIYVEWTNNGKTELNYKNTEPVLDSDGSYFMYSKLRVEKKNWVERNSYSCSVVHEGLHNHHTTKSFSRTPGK

B1: dcFv-8 (Fc-fusion of human scFv Clone 8) (Fc fusion)
chain: QSVLTQPPSVSAAPGQKVTISCSGSSSNIGNNYVSWYQQLPGTAPKLLIYDNNKRPSGIPDRFSGSKSGTSATLAISGLQSEDEADYYCAAWDDSLNGVVFGGGTKLTVLGSGGSTITSYNVYYTKLSSSGTQVQLVQSGAEVKKPGSSVKVSCKASGGTFSSYAISWVRQAPGQGLEWMGRIIPIFGTANYAQKFQGRVTITADESTSTAYMELNSLRSEDTAVYYCARDRWDWNDAFDIWGQGTMVTVSS
notes: Bivalent fusion construct to human IgG Fc; also called clone dcFv-8; not shown: human IgG1 Fc of vector pFUSE-hIgG1e2-Fc2(IL2ss) (Invivogen)
B2: human scFv clone 8, soluble (scFv)
scFv: B1 chain
notes: Tags are not described; also called scFv-8; Atto-HuMab-08
B3: human scFv clone 8, phage-displayed (scFv)
scFv: B1 chain
notes: also called scFv-8; Atto-HuMab-08
B4: Flag-FGFR2-IIIb expressed on CHO cells (receptor, human)
chain: RPSFSLVEDTTLEPEEPPTKYQISQPEVYVAAPGESLEVRCLLKDAAVISWTKDGVHLGPNNRTVLIGEYLQIKGATPRDSGLYACTASRTVDSETWYFMVNVTDAISSGDDEDDTDGAEDFVSENSNNKRAPYWTNTEKMEKRLHAVPAANTVKFRCPAGGNPMPTMRWLKNGKEFKQEHRIGGYKVRNQHWSLIMESVVPSDKGNYTCVVENEYGSINHTYHLDVVERSPHRPILQAGLPANASTVVGGDVEFVCKVYSDAQPHIQWIKHVEKNGSKYGPDGLPYLKVLKHSGINSSNAEVLALFNVTEADAGEYICKVSNYIGQANQSAWLTVLPKQQAPGREKEITASPDYLEIAIYCIGVFLIACMVVTVILCRMKNTTKKPDFSSQPAVHKLTKRIPLRRQVTVSAESSSSMNSNTPLVRITTRLSSTADTPMLAGVSEYELPEDPKWEFPRDKLTLGKPLGEGCFGQVVMAEAVGIDKDKPKEAVTVAVKMLKDDATEKDLSDLVSEMEMMKMIGKHKNIINLLGACTQDGPLYVIVEYASKGNLREYLRARRPPGMEYSYDINRVPEEQMTFKDLVSCTYQLARGMEYLASQKCIHRDLAARNVLVTENNVMKIADFGLARDINNIDYYKKTTNGRLPVKWMAPEALFDRVYTHQSDVWSFGVLMWEIFTLGGSPYPGIPVEELFKLLKEGHRMDKPANCTNELYMMMRDCWHAVPSQRPTFKQLVEDLDRILTLTTNEEYLDLSQPLEQYSPSYPDTRSSCSSGDDSVFSPDPMPYEPCLPQYPHINGSVKT
notes: whole, on cells; also called CHO-FGFR2-IIIb; FGFR2-IIIb-expressing CHO cells; not shown: Flag-tag at the N-terminus
B5: Atto-HuMab-01 (full-length human IgG1) (antibody, V domains shown)
VH: QVQLVQSGAEVKKPGSSVKVSCKASGGTFSSYAISWVRQAPGQGLEWMGRIIPIFGTANYAQKFQGRVTITADESTSTAYMELNSLRSEDTAVYYCARDRWDWNDAFDIWGQGTMVTVSS
VL: not shown
notes: also called Atto-01

Legend:
[1] = biological target: B4; assay: immunocytochemical staining of CHO cells transiently expressing FGFR2IIIb
[2] = biological target: T1, soluble FGFR2 IIIc-Fc fusion protein; assay: competition ELISA: antibody pre-incubated with FGFR2IIIc-Fc, then added to ligand-coated plate (legend paragraph 175: FGF8; paragraph 640: FGF2); bound receptor detected
[3] = biological target: T1, soluble FGFR2 IIIc-Fc fusion protein; assay: ELISA: soluble scFv on coated protein (2 ug/ml)
FGFR2 IIIb-Fc [4] = biological target: T2, FGFR2 IIIb-Fc; assay: ELISA: soluble scFv on coated protein (2 ug/ml)
human ovalbumin (OA) [5] = biological target: human ovalbumin (OA) (human); assay: ELISA: soluble scFv on coated protein (2 ug/ml)
FGFR2 IIIb-Fc [6] = biological target: T2, FGFR2 IIIb-Fc; assay: ELISA with soluble scFv, plate coated with FGFR2 IIIb Fc fusion (whole extracellular domain)
human ferritin (Fer) [7] = biological target: T4, human ferritin (Fer) (human, UniProt P02794 2-183; P02792 2-175, Natural ferritin is a 24-subunit shell of H and L chains in a tissue-dependent ratio, with an iron core. The letters carry one copy of each subunit.); assay: phage ELISA on coated protein
T4 construct: also called Feritin

[8] = biological target: T3, 128AA-mFc (128-amino acid loop-3 …); assay: phage ELISA on coated protein
human ovalbumin (OA) [9] = biological target: human ovalbumin (OA) (human); assay: phage ELISA on coated protein
human ferritin (Fer) [10] = biological target: T4, human ferritin (Fer); assay: phage ELISA on coated protein; remark: listed apart in the source
FGFR2 IIIb-Fc [11] = biological target: T2, FGFR2 IIIb-Fc; assay: phage ELISA, plate coated with FGFR2 IIIb Fc fusion (whole extracellular domain)
[12] = biological target: T5, dcFv-01 (Fc-fusion of human scFv Clone 1) (human); assay: immunocytochemical staining of CHO cells transiently expressing FGFR2IIIb
T5 construct: scFv-1 fragment fused to the N-terminus of human IgG1 Fc; bivalent; also called dcFv-1; clone dcFv-1; not shown: human IgG1 Fc of vector pFUSE-hIgG1e2-Fc2(IL2ss) (Invivogen)

[13] = biological target: B4; assay: immunocytochemistry on CHO cells
[14] = biological target: T6, Flag-FGFR2-IIIc expressed on CHO cells (human, UniProt P21802 22-821); assay: cell-based binding assay on stable CHO-FGFR2-IIIc cells, method of Beatty et al.
T6 construct: whole, on cells; also called CHO-FGFR2-IIIc; CHO-IIIc; not shown: Flag-tag at the N-terminus

[15] = biological target: T6, Flag-FGFR2-IIIc expressed on CHO cells; assay: cell-based binding assay (cell ELISA) on stable CHO-FGFR2-IIIc cells
[16] = biological target: T7, FGFR2-IIIc (receptor protein of FIG. 52C) (UniProt P21802 152-377, limits assumed); assay: ELISA with biotinylated Atto-HuMab-01; the receptor concentration is varied (x axis: FGFR receptor concentration, nM)
[17] = biological target: T7, FGFR2-IIIc (receptor protein of FIG. …); assay: binding curves of biotinylated antibody on FGF receptors (FIG. 52C), format not told; biotinylated antibody, FIG. 52C receptor panel

## B1
[1]
  binding result: no binding
[2]
  IC50 (read off the curve): ~300 pM

## B2
[3]
  OD (450 nm): 0.8
FGFR2 IIIb-Fc [4]
  OD (450 nm): 0.003
Human ovalbumin (OA) [5]
  OD (450 nm): 0.028
[1]
  binding result: no binding
FGFR2 IIIb-Fc [6]
  binding result: no binding

## B3
Human ferritin (Fer) [7]
  binding result: no binding
[8]
  OD (450 nm): 0.215
Human ovalbumin (OA) [9]
  OD (450 nm): 0.02
Human ferritin (Fer) [10]
  OD (450 nm): 0.011
[1]
  binding result: no binding
FGFR2 IIIb-Fc [11]
  binding result: no binding

## B4
[12]
  binding result: no binding

## B5
[13]
  binding result: no binding (tested: 1ug/ml)
[14]
  Kd: 700 pM
[15]
  EC50 (read off the curve): ~400 pM
[16]
  EC50 (read off the curve): ~200 pM
[17]
  Kd: ~200 pM

From US20130142802A1 (published 2013)
